The target of data set [1] is T1, MBP-IDD4-DD (phospho-mimic, truncated) (Arabidopsis thaliana, UniProt Q8GYC1 20-219, S73D;T130D).
T1 sequence: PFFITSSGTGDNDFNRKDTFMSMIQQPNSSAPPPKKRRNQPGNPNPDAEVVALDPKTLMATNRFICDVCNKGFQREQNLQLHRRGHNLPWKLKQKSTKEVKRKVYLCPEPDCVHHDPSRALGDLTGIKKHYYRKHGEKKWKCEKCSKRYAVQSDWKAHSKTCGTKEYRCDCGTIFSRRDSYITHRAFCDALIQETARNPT
Put plainly: EMSA; LightShift Chemiluminescent EMSA kit instructions; 20 fmol biotinylated DNA, 1 ug protein; buffer, salt, pH and temperature not stated. The conditions noted are these: protein: recombinant; tags: MBP; label: 3' biotin; blunt. (Mobility shift assays separate free from complexed probe on a gel.)

Data set [2] addresses T1, MBP-IDD4-DD (phospho-mimic, truncated). Put plainly: competition; unlabeled competitor up to 0.5 uM (100x excess) against N1; LightShift Chemiluminescent EMSA kit instructions; 20 fmol biotinylated DNA, 1 ug protein; buffer, salt, pH and temperature not stated. The conditions noted are these: protein: recombinant; tags: MBP; blunt.

B1: SAGT1 promoter ID1 probe (395s/395as) (dsDNA)
DNA 1: ACATGGTAGACAAAATAATGAAGCCAAAATTAATA
DNA 2: TATTAATTTTGGCTTCATTATTTTGTCTACCATGT
In the case of B1, in data set [1], the binding result is on record as “binds”.

B2: SAGT1 promoter ID1 competitor, unlabeled (spe) (dsDNA)
DNA 1: ACATGGTAGACAAAATAATGAAGCCAAAATTAATA
DNA 2: TATTAATTTTGGCTTCATTATTTTGTCTACCATGT
As for B2, in data set [2], the binding result is “binds”.

The record behind these values is paper PMC6345439, “INDETERMINATE-DOMAIN 4 (IDD4) coordinates immune responses with plant-growth in Arabidopsis thaliana”.
